In paper PMC11211491 (2024):
Square brackets hold non-standard residues; d marks the D form. Dap = NC[C@H](N)C(=O)O

Biological target: His-tagged SRPK1ΔNS3 (UniProt Q96SB4 1-655)
Experiment: MST

Chain of His-tagged SRPK1ΔNS3 (Q96SB4 other isoform, or with tags, fused parts or gaps mutant): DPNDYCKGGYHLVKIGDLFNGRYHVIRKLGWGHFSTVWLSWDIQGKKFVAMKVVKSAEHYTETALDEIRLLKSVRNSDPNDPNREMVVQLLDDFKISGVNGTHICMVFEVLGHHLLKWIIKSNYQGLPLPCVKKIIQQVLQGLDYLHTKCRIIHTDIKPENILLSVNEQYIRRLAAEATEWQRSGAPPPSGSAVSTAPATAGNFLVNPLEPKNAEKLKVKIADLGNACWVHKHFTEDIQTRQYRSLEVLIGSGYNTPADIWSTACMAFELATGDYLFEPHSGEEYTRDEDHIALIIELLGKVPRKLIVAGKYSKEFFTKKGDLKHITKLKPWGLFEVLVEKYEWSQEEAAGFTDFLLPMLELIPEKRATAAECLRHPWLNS

B1: covalent docking blocker of SRPK (C-DBS) (peptide)
chain: Ac-RERARTRR[Dap](aryl‑SO2F)RARTRERARTR-NH2
Kd: 1470 nM
